Source: PMC12373786, “Targeted protein degradation in Escherichia coli using CLIPPERs” (EMBO Reports, 2025)
Square brackets hold non-standard residues; d marks the D form. Primed or numbered codes have the meaning given here. Ends that are not written are not given here. PEG3′ = three-unit polyethylene glycol linker

Legend:
[1] = molecular target: His-SUMO-XB-GGS (E. coli); assay: BLI; His-SUMO-tagged peptide loaded on Octet NTA biosensors (150 nM Anchor-Linker or 100 nM GroTAC1), blocked with His-SUMO; ClpX 1 uM to 31.25 nM in solution; 30 °C; 25 mM HEPES pH 8.0, 200 mM KCl, 10 mM MgCl2, 0.05% Tween-20, 2.5 mM ATP; 1:1 model
[2] = molecular target: His-SUMO-XB-GGS-SBP (E. coli); assay: as above
[3] = molecular target: His-SUMO-XB-GGS (E. coli); assay: BLI; His-SUMO-tagged peptide loaded on Octet NTA biosensors (150 nM Anchor-Linker or 100 nM GroTAC1), blocked with 86 nM His-SUMO; ClpX as analyte, 1 uM to 31.25 nM; 30 C; 25 mM HEPES pH 8.0, 200 mM KCl, 10 mM MgCl2, 0.05% Tween-20, 2.5 mM ATP; 1:1 fit
[4] = molecular target: His-SUMO-XB-GGS-SBP (E. coli); assay: as above
[5] = molecular target: His-SUMO-XB-GGS-SBP (E. coli); assay: BLI; His-SUMO-tagged peptide loaded on Octet NTA biosensors (200 nM Linker-Bait or 400 nM GroTAC1), blocked with His-SUMO; GroEL 2.5 uM to 78.1 nM in solution; 30 °C; 25 mM HEPES pH 8.0, 300 mM KCl, 10 mM MgCl2, 0.05% Tween-20, 12.5 mM ATP; 1:1 model
His-SUMO-GGS-SBP [6] = assay: as above
[7] = molecular target: His-SUMO-XB-GGS-SBP (E. coli); assay: BLI; His-SUMO-tagged peptide loaded on Octet NTA biosensors (200 nM Linker-Bait or 400 nM GroTAC1), blocked with 257 nM His-SUMO; GroEL as analyte, 2.5 uM to 78.1 nM; 30 C; 25 mM HEPES pH 8.0, 300 mM KCl, 10 mM MgCl2, 0.05% Tween-20, 12.5 mM ATP; 1:1 fit
His-SUMO-GGS-SBP [8] = assay: as above
His-ZBD = molecular target: T1, His-ZBD (E. coli, UniProt P0A6H1 1-52); assay: BLI; 1.37 uM His-ZBD loaded on Octet NTA biosensors, blocked with 600 nM cAbGFP; untagged synthetic peptide as analyte, 1 uM to 31.25 nM; 30 C; 25 mM HEPES pH 8.0, 200 mM KCl, 10 mM MgCl2, 2.5 mM ATP, 0.05% Tween 20; 1:1 fit; settings: both partners purified
T1 construct: also called 6xHis-ZBD; source: E. coli BL21 DE3, purified (HisTrap, Superdex200); not shown: His6, N-terminal, kept
T1 sequence (looked up): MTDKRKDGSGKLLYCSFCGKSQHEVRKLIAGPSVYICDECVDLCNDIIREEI

“ClpX (from UniProt P0A6H1 1-424) (enzyme)” gave a Kd [1] of 65 nM, a Kd [2] of 70 nM and a Kd [3] of 64.8 nM. It also gave a koff [3] of 0.00495 s⁻¹, a kon [3] of 76500 M⁻¹ s⁻¹ and a Kd [4] of 70.4 nM. For the same molecule, the koff [4] was 0.00769 s⁻¹ and the kon [4] was 109000 M⁻¹ s⁻¹.

Work on “GroEL (from UniProt P0A6F5 1-548) (natural protein)” yielded a Kd [5] of 154 nM, a Kd (His-SUMO-GGS-SBP [6]) of 94 nM and a koff [7] of 0.00409 s⁻¹. The kon [7] was 26600 M⁻¹ s⁻¹, the Kd (His-SUMO-GGS-SBP [8]) was 93.6 nM and the koff (His-SUMO-GGS-SBP [8]) was 0.00919 s⁻¹. It also gave a kon (His-SUMO-GGS-SBP [8]) of 98200 M⁻¹ s⁻¹.

B1: GroTAC2 (synthetic) (designed binder)
peptide: CYRGGRPALRVVKGGSGGSGGSWMTTPWGFHLP
notes: flexible linker; also called untagged, synthetic GroTAC2; source: synthetic peptide (GeneScript)
B1 was tested, and the Kd (His-ZBD) was 52.6 nM, the koff (His-ZBD) was 0.00165 s⁻¹ and the kon (His-ZBD) was 31400 M⁻¹ s⁻¹.

B2: GroTAC3 (synthetic) (designed binder)
peptide: CYRGGRPALRVVK[PEG3′]SWMTTPWGFHLP
notes: residues 17-28 in the model PDB 8S32; the (PEG)3 linker is no amino acid stretch; also called XB-PEG3-SBP; source: synthetic peptide (KareBay Biochem)
B2 showed a Kd (His-ZBD) of 82.4 nM, a koff (His-ZBD) of 0.000915 s⁻¹ and a kon (His-ZBD) of 11100 M⁻¹ s⁻¹.
